The nature of the data set: label from the status in PepcDB records.

Consider “MGHHHHHHSHMVLSQNTKRESGRKVQSGNINAAKTIADIIRTCLGPKSMMKMLLDPMGGIVMTNDGNAILREIQVQHPAAKSMIEISRTQDEEVGDGTTSVIILAGEMLSVAEHFLEQQMHPTVVISAYRKALDDMISTLKKISIPVDISDSDMMLNIINSSITTKAISRWSSLACNIALDAVKMVQFEENGRKEIDIKKYARVEKIPGGIIEDSCVLRGVMINKDVTHPRMRRYIKNPRIVLLDSSLEYKKGESQTDIEITREEDFTRILQMEEEYIQQLCEDIIQLKPDVVITEKGISDLAQHYLMRANITAIRRVRKTDNNRIARACGARIVSRPEELREDDVGTGAGLLEIKKIGDEYFTFITDCKDPKACTILLRGASKEILSEVERNLQDAMQVCRNVLLDPQLVPGGGASEMAVAHALTEKSKAMTGVEQWPYRAVAQALEVIPRTLIQNCGASTIRLLTSLRAKHTQENCETWGVNGETGTLVDMKELGIWEPLAVKLQTYKTAVETAVLLLRIDDIVSGHKKKGDDQSRQGGAPDAGQE”, for which the protein production result is “failed”. As for “MGHHHHHHSHMVSDIRRFLSAFHEPQVGLIQAAQQLLCDEQAPQRQRLLADLLHNVSQNIAAETRAEDPPWFEGLESRFQSKSGYLRYSCESRIRSYLREVSSYPSTVGAEAQEEFLRVLGSMCQRLRSMQYNGSYFDRGAKGGSRLCTPEGWFSCQGPFDMDSCLSRHSINPYSNRESRILFSTWNLDHIIEKKRTIIPTLVEAIKEQDGREVDWEYFYGLLFTSENLKLVHIVCHKKTTHKLNCDPSRIYKPQTRLKRKQPVRKRQ”, the entry is “failed”; as for “MGHHHHHHSHPQSAAKPGLHFIDQHRAALIARVTNVEWLLDALYGKVLTDEQYQAVRAEPTNPSKMRKLFSFTPAWNWTCKDLLLQALRESQSYLVEDLERS”, “failed”.

With “MGHHHHHHSHTGKTTFSATIHALEGGVVADCDVDAPNLHILLKPQILKAEDFIASKKARIMPEKCSSCGLCYDLCRFGAVVAEDGYYVDEKKCEGCAFCFNVCPERAIEMENVKTGDLYVSKTEWGYFVHARLKPGEENTGRLVTEVKNRAKEIAEESNAEFLIVDSAPGVGCPVMASLTGVDAAIIVTEPTVSGLSDMLRILELCEHFRIRPFVVVNKFDLNVNIASEIESYCSENGVEFAGRVPFDKAIPEQIANLNFPFSGKAADKMVEIWKKLRE”, the protein production result is “not failed”. For “MGHILDSRRCALSVTQQQVLDSLARIKSPRGVALPNANVLSAISASDGKVFFSINVDAAEARAWEAVRAEAEAAVRAIPGATTVMVALTAERKPGSAPPPPPTPSRGTPGVQPVHAHKPPQGGGSPMARQSEIPGVAAVIAVASGKGGVGKSTTALNLALGLRDLGLKVGLLDADIYGPSVPRLTGLRDKPELDGERKMIPLRRFGLAIMSIGFLVEEETAMIWRGPMVMSAVTQMLRDVAWGSLDVLVVDMPPGTGDAQLTLAQNVPLKGAVIVSTPQDLSLIDARRGLAMFRKVNVPVLGIVENMSYFQCPHCGTKSDIFGHGGARHEAEKLGVPFLGEIPLHMAIRATSDAGNPVVDSEPDGPHAAIYRAIAGQVRDQLKGAIAAA” the value was “failed”. On to “MGHNGIINYEVDVQDNKIEDLKILKHSETSGIFNQVIDKLKQNIITEQSFNVDTISGATVMTQALLKSADKAVTDAGVDVQLEHHHHHH”, for which the protein production result is given as “not failed”. For “MGHSGREERIKDIFKELTSKELTPGLLLTLQKLAQKPNTNLEQFIASCKALTKLSSNNPIIFNELLELLKNKSEEDSTGPKKIAPSINKRKKFKIQLDLDDNEDELDSPVQKKPAPTRTLFKRIDKLKAKQLRQYSPTVKDPSPNSEQQTQNGHAETKDYEPTRSEVVEEDREWYDNDDDYGNLVPEPLSELPEEAKLLPVIRNIDNDDALRNTVQLYPIPLKQRMEWIPPFLSKFALENKVPTSIIIGSISETSSQVSALSMVNPFRNPDSEFSANAKRGSKLVALRRINMEHIQQSRDNTTVLNTAMGEVLGLENNNKAKDKSNQKICDDTALFTPSKDDIKHTKEQLPVFRCRSQLLSLIRENQVVVIIGETGSGKTTQLAQYLYEEGYANDRGKSIVVTQPRRVAAISVAKRVAMEMQVPLGKEVGYSIRFEDVTDSECTKLKFVTDGILLRETLLDDTLDKYSCVIIDEAHERSLNTDILLGFFKILLARRRDLKLIITSATMNAKKFSAFFGNAPQFTIPGRTFPVQTIYTSNPVQDYVEAAVSQAVKIHLANDCSSGDILIFMTGQEDIETTFDTLQEKFLQVYSKKFGTANFEEINDIEILPIYSALPADLQFKIFQDLHGTKRKIIIATNIAETSLTIKGIRYVIDCGYSKLKVYNPKIGLDSLVITPISKANADQRSGRAGRTAPGTAYRLYTEDTFKEDMYLQTIPEIQRTNLSNTLLLLKSLDVTDELSKFPFIDKPPLQTFLSSLYELWFIGAIDTSGQLTPLGLQMAKFPLQPSLSKILLIAVRNGCSDEMLTIVSMLSVPQVFYRPKERQKEADIARNKFFIAKSDHLTLLNVFEQWRANNFSSHWCNKHFVQYKSLVRARDIRDQLLTILKSQKIPVISSGKDWDIIKKCICSGFAHQAAKITGLRNYVHLKTGVSVQLHPTSALHGLGDLPPYVVYHELLMTSKEYICCVTSVDPFWLMEYGGLLYDIKRIKNDQEATTTGLFGEHYEHTLDKVEDDIDINIRRCKDMRDSVIQELKMTDNSNKEDKKQKTKKQNILNGKENSMKPFKRRKPFF” the value was “failed”; for “MGIDPVTHRATHKTKRVEATANTFKAVATEWLKEVHQKAVVEEHYNRNVRRLEQHAFPKLGRRPISEIEPSDILEPLRDIAKTGRRETAKRVKTLIGQVFRYTVSTGRAQRDMTADIRGILPALEHHHHHH”, “failed”.

Turning to “MGIFGWRTASLLKKAWQLYQQQHWSKAQQCARQVIEQTPQPEAYYLLGLIAEQLARPLEARTAYEQAIALDPWHAPSHYRLAVVLHALLQQPAAAVPHYQRALEVKPDWVEAHSNLGNAYLDLGDTEGAIACYQKALSLNPDLPTTLYNLGLCLHAQGKLTEATACYEQSLYLEPGQADVHNNLGSAYLELKNYTAATVHFQAALGANPELLVAHYNLGYALHLQGNLAAARDRYQEVLLRDNKHLRTLLQLGQICLAEEDLTGAIGYYQRCLSLDPLNSAAQAGLATALLESGDPQAALPYLRQAVALNPEAEDVRLKFALVLLMLEQFREGWQEYEWRWQQPTGGLRNYPQPRWQGQSLKGKTLFVYSEQGFRDCIQFVRLLPLMAKHAQRIIFEAYPPLVRLCQTLPGIEVMSTEETPPPFDYHTPLLSLPRYLGIDQDHFPKFKPYFPLPTRPPHPLFKVSKPRVGLVWASHSQTRTTVQRSCPLEYFLPLLQEFDVQWYSLQKERSPTEAEQLRQVGVIDCQPYMGDFLDTALLIQQLDAVVTIDTAVAHLAGALGKPLWILLPFVADWRWFWRRSRSPWYPSAELIRQPQRGDWPGAIAQLRSALQAHYRTRCNGIPN”, the protein production entry is on record as “failed”. Regarding “MGIIERIKEIEAEMARTQKNKATEYHLGQLKAKIAKLRTQLLEPPKGASGGGEGFEVTKYGHGRVALIGFPSVGKSTLLTMLTGTHSEAASYEFTTLTCIPGVIHYNDTKIQLLDLPGIIEGASEGKGRGRQVIAVAKSSDLVLMVLDASKSEGHRQILTKELEAVGLRLNKTPPQIYFKKKKTGGISFNTTAPLTHIDEKLCYQILHEYKIHNAEVLFRENATVDDFIDVIEGNRKYIKCVYVYNKIDVVGIDDVDRLSRQPNSIVISCNLKLNLDRLLARMWDEMGLVRVYSKPQGQQPDFDEPFVLSSDRGGCTVEDFCNHVHRTLVKDMKYALVWGTSTRHNPQNCGLSQHLEDEDVVQIVKKKERDEGGRGRFKSHSNAPARIADREKKAPLKQ”, the protein production result is on record as “failed”. As to “MGILDEIMNQEHFDIKTSLDYINEYEKLLPFDSEIHTARAVTYFFGEEYKLAEEHIRKALKFRPNNYDNNFYLANILIAMGEYPDAIKSAVLSVTFLKHFAKIQGYDYINDKLFYYNEQVKTLIEYCIENIKDTNVLEDLKRFFGFIELSIAKFPVCFYGDKWNILVGEYLNKDLNSEYNDYICFYSDTYNNMLSDFQKKLYTVINNSEISSICPIESFKSMTAKEFSLDNGKYIIPIATTEYNQVIDFKIKNTNFKSQQVDPPGFFKYYRVNNGISLNSDKDVIIGKPIKLGFKEKNKKLVFTIFIDALSQKYLLETKYKSMPYTKAFFDKGIIFENCYSAGEWTYPSLTSVVTGLYTTNHHFLHSSAGYKYPDDIDLFSEIMKKNEYFTANISGTYALAPYSSGFRGFDRTVFKNSLGFSDSVIINDAIKHIESFKETNQFVFMSLSDVHKILDDIENYSVNYDIVNQTSLDIETSLSKRSSFVSAWQKYDEEAIKKYDVALRELDRQLKGIYDYILQNYSEEEYLISIFSDHGASFLGKDDFLLKSNITNSVLMVRGSGSASNGNTEYISNMDLIPIILKLANIEHDLSKYDCVLPKTLGGKGREFTYSESIYPGQTYKAMVNNDKYCYILETKGITDIDGTINFDEYSDSVFDKKEDKEVKDNDILEYYREIVYNHIKRNIKY”, the protein production entry is “failed”. In the case of “MGILDRFEKGLENVVNGAFAKAFRSQVEPVELAGALRREADNKAAVVSRGRTLTANHYSIELSPTDFDRLSGLENELRSDLRQVIGDHAVEQAYSFVGPVSVEFVEAEDLDTGMYRVVSSTQRPDGSPAAQPANRGGYDPVSRSHNIVGEGQANSGSRPVPPRRTPEPAPARPAATSRPASAPVRQAAPARSRTISASVTIHGQDYELHQGTNVFGRSSSSSDYVIDDPGVSRRHFEITVERDHAVANDLGSTNGTLLRGRKLTSANLSDGDVLMAGDAEVRYHENEQDAQ”, the protein production entry is reported as “failed”. For “MGINEIIMYIMMFFMLIAAVDRILSQFGGSARFLGKFGKSIEGSGGQFEEGFMAMGALGLAMVGMTALAPVLAHVLGPVIIPVYEMLGANPSMFAGTLLACDMGGFFLAKELAGGDVAAWLYSGLILGSMMGPTIVFSIPVALGIIEPSDRRYLALGVLAGIVTIPIGCIAGGVIAMYSGVQINGQPVEFTFALILMNMIPVLIVAVLVALGLKFIPEKMINGFQIFAKFLVALITIGLAAAVVKFLLGWELIPGLDPIFMAPGDKPGEVMRAIEVIGSISCVLLGAYPMVLLLTRWFEKPLMNVGKLLNVNNIAAAGMVATLANNIPMFGMMKQMDTRGKVINCAFAVSAAFALGDHLGFAAANMNAMIFPMIVGKLIGGVTAIGVAMMLVPKDDAAQVKTEAEAQS” the value was “failed”; for “MGISPPLTAVSAFGTDVSGNAFIGAGVATLAVLMVLSAFFSSSEIAMFSIPRHRIDALVEEGRSGADAVAALKSDPHRLLITILVGNNLVNIAMSSIATGLFATSMSQGKAVLAATFGVTALVLLFGESAPKSYAVENSESWALSIAKPLQWSERFLYPLVVLFDYLTRAVNQFTGGRAAIESSYVTRSEIQDMIKTGEREGVIEEDEREMLQRIFRFNNTIAKEVMTPRLDVVAVSKTDTIEAAIQTCTQAGHERVPVYDGELDNVIGVVSLEDLVRESLYGETEDAELDDLIEPTLHVPESKNVDDLLQEMQDERVQLVVVIDEFGTTEGLLTAEDITEEIVGEILDGGEDLPIDSVDEDTVRVRGEVNIEEVNEALNIDLPEGEEFETIAGFIFNRAGRLVEEGEAFRFEDIELTVEHVENTRIMKARVQRLDSAAEADANAEVLTADSTGNGA”, “failed”.

On to “MGKDGLSDDQVSSMKEAFMLFDTDGDGKIAPSELGILMRSLGGNPTQAQLKSIIASENLSSPFDFNRFLDLMAKHLKTEPFDRQLRDAFKVLDKEGTGFVAVADLRHILTSIGEKLEPNEFDEWIKEVDVGSDGKIRYEDFIARMVAK”, for which the protein production entry is listed as “failed”.

Consider “MGKEFFLQHDIVIMYSILFVFIIILKMQFFTWFGMLACMFGIVFYTLNEYMTHRFLFHIKPPKNTFLLKMLRRLHYDHHVYPDDLKLLFLPVWFSIPSFTIYLLIAYGITKSVTITLSFGIGMIIMLLVYEWKHYIAHRPIRPVTKFGRWLKKQHILHHYKNEKFWFGVSNPVFDFIFGTLKDGKDVELSETARNLEKEKKTKVVR”, for which the protein production result was “failed”.

These data come from a protein production outcome set (Wang et al. 2014).
